Consider one substance from US10654893B2, “Self-assembling peptide compositions” (3-D MATRIX, LTD., priority 2014, dated 2020).

The data set in a line: pH adjustment with 0.1 N NaOH, pH and visual observation. Type of data set: physicochemical. The settings on record: for Appearance of composition: 2.5%. Here is the method:
In this Example, pH levels of peptide compositions was adjusted, for example, by addition of 0.1 N NaOH to 2 mL of a 2.5% peptide composition. pH and appearance of the adjusted compositions were observed. An acidic salt was added if the pH level was higher than the desired level.
With certain compositions, when pH levels of peptide compositions were higher than 3.5 (RADA16 (SEQ ID NO:1) and KLD12 (SEQ ID NO:2)) or 3.7 (IEIK13 (SEQ ID NO:3)), the peptide compositions began phase separation (i.e. becoming cloudy). In some embodiments, provided peptide compositions have a pH within the range of about 3.0 to about 3.7 (particularly for IEIK13 (SEQ ID NO:3)), or about 3.0 to about 3.5 (particularly for RADA16 (SEQ ID NO:1) and/or KLD12 (SEQ ID NO:2)).

Regarding “Arg-Ala-Asp-Ala-Arg-Ala-Asp-Ala-Arg-Ala-Asp-Ala-Arg-Ala-Asp-Ala [RADA16]”, the Observation result (0.1N NaOH 0 μL/mL, Conc. 2.5%, pH 2.2 (RADA16), 1.8 (IEIK13), 2.1 (KLD12)) is on record as “Clear, thick gel”; the Observation entry (0.1N NaOH 50 μL/mL, Conc. 2.38%, pH 2.3 (RADA16), 2.1 (IEIK13), 2.4 (KLD12)) is on record as “Clear, thick gel”; the Observation entry (0.1N NaOH 100 μL/mL, Conc. 2.27%, pH 2.4 (RADA16), 2.2 (IEIK13), 2.6 (KLD12)) is given as “Clear, thick gel”; the Observation entry (0.1N NaOH 150 μL/mL, Conc. 2.17%, pH 2.7 (RADA16), 2.7 (IEIK13), 2.9 (KLD12)) is given as “Clear, thick, stiffer gel”; the Observation result (0.1N NaOH 200 μL/mL, Conc. 2.08%, pH 2.9 (RADA16), 3.0 (IEIK13), 3.3 (KLD12)) was “Clear, thick, stiffer gel”; the Observation result (0.1N NaOH 250 μL/mL, Conc. 2.0%, pH 3.2 (RADA16), 3.3 (IEIK13), 4.0 (KLD12)) was “Clear, thick, stiffer gel”. Further, the Observation result is, setting by setting: (0.1N NaOH 275 μL/mL, Conc. 1.96%, pH 3.4 (RADA16), 3.7 (IEIK13)) “Clear, thick, stiffer gel”; (0.1N NaOH 300 μL/mL, Conc. 1.92%, pH 3.6 (RADA16), 4.0 (IEIK13), 4.7 (KLD12)) “Slightly cloudy, brittle gel”; (0.1N NaOH 350 μL/mL, Conc. 1.85%, pH 4.5 (RADA16), 4.5 (IEIK13), 5.2 (KLD12)) “Cloudy, phase-separated”; (pH 7.0, NaOH volume and conc. not given) “Cloudy, phase-separated”. Further, the “Peptide composition pH” value runs as follows: (0.1N NaOH added in 2.5% composition 0 μL/mL, Conc. 2.5%) 2.2; (0.1N NaOH added in 2.5% composition 50 μL/mL, Conc. 2.38%) 2.3; (0.1N NaOH added in 2.5% composition 100 μL/mL, Conc. 2.27%) 2.4; (0.1N NaOH added in 2.5% composition 150 μL/mL, Conc. 2.17%) 2.7; (0.1N NaOH added in 2.5% composition 200 μL/mL, Conc. 2.08%) 2.9; (0.1N NaOH added in 2.5% composition 250 μL/mL, Conc. 2.0%) 3.2. Moreover, the “Peptide composition pH” value is, setting by setting: (0.1N NaOH added in 2.5% composition 275 μL/mL, Conc. 1.96%) 3.4; (0.1N NaOH added in 2.5% composition 300 μL/mL, Conc. 1.92%) 3.6; (0.1N NaOH added in 2.5% composition 350 μL/mL, Conc. 1.85%) 4.5. Moreover, the Appearance of composition entry (pH about 3.5 (FIG. 12)) is “clear”, the Appearance of composition entry (pH=3.6 (FIG. 12)) is recorded as “slightly cloudy” and the Appearance of composition entry (pH=4.0 (FIG. 12)) was “precipitated”.
